B1: peptide-HDO conjugate of Example 47 (first nucleic acid strand A1, second nucleic acid strand C47) (peptide)
peptide: AVFVWNYYIIRRYYC
modifications: MeF at 3, MeY at 14 (N-methyl); thioether ring from N-terminal chloroacetyl-Ala to Cys 15; C-terminal Gly-KN3-NH2, azide joined to BCN on the oligonucleotide
notes: also called A1/C47
B2: peptide-HDO conjugate of Example 44 (first nucleic acid strand A1, second nucleic acid strand C44) (peptide)
peptide: AVFVWNYYIIRRYYC
modifications: MeF at 3, MeY at 14 (N-methyl); thioether ring from N-terminal chloroacetyl-Ala to Cys 15; C-terminal Gly-KN3-NH2, azide joined to BCN on the oligonucleotide
notes: also called A1/C44
B3: peptide-HDO conjugate of Example 49 (first nucleic acid strand A1, second nucleic acid strand C49) (peptide)
peptide: AVFVWNYYIIRRYYC
modifications: MeF at 3, MeY at 14 (N-methyl); thioether ring from N-terminal chloroacetyl-Ala to Cys 15; C-terminal Gly-PEG4c-KN3-NH2, azide joined to BCN on the oligonucleotide
notes: also called A1/C49
B4: peptide-HDO conjugate of Example 10 (first nucleic acid strand A2, second nucleic acid strand C10) (peptide)
peptide: AVFVWNYYIIRRYYC
modifications: MeF at 3, MeY at 14 (N-methyl); thioether ring from N-terminal chloroacetyl-Ala to Cys 15; C-terminal Gly-KN3-NH2, azide joined to BCN on the oligonucleotide
notes: also called A2/C10
B5: peptide-HDO conjugate of Example 32 (first nucleic acid strand A1, second nucleic acid strand C32) (peptide)
peptide: AVFVWNYYIIRRYYC
modifications: MeF at 3, MeY at 14 (N-methyl); thioether ring from N-terminal chloroacetyl-Ala to Cys 15; C-terminal Gly-KN3-NH2, azide joined to BCN on the oligonucleotide
notes: also called A1/C32
B6: peptide-HDO conjugate of Example 43 (first nucleic acid strand A2, second nucleic acid strand C42) (peptide)
peptide: AVFVWNYYIIRRYYC
modifications: MeF at 3, MeY at 14 (N-methyl); thioether ring from N-terminal chloroacetyl-Ala to Cys 15; C-terminal Gly-KN3-NH2, azide joined to BCN on the oligonucleotide
notes: also called A2/C42
B7: peptide-HDO conjugate of Example 45 (first nucleic acid strand A1, second nucleic acid strand C45) (peptide)
peptide: AVFVWNYYIIRRYYC
modifications: MeF at 3, MeY at 14 (N-methyl); thioether ring from N-terminal chloroacetyl-Ala to Cys 15; C-terminal Gly-KN3-NH2, azide joined to BCN on the oligonucleotide
notes: also called A1/C45
B8: peptide-HDO conjugate of Example 20 (first nucleic acid strand A1, second nucleic acid strand C20) (peptide)
peptide: AVFVWNYYIIRRYYC
modifications: MeF at 3, MeY at 14 (N-methyl); thioether ring from N-terminal chloroacetyl-Ala to Cys 15; C-terminal Gly-KN3-NH2, azide joined to BCN on the oligonucleotide
notes: also called A1/C20
B9: peptide-HDO conjugate of Example 56 (first nucleic acid strand A4, second nucleic acid strand C56) (peptide)
peptide: AVFVWNYYIIRRYYC
modifications: not fully specified; MeF at 3, MeY at 14 (N-methyl); thioether ring from N-terminal chloroacetyl-Ala to Cys 15; C-terminal Gly-KN3-NH2, azide joined to BCN on the oligonucleotide
notes: also called A4/C56
B10: peptide-HDO conjugate of Example 19 (first nucleic acid strand A1, second nucleic acid strand C19) (peptide)
peptide: AVFVWNYYIIRRYYC
modifications: MeF at 3, MeY at 14 (N-methyl); thioether ring from N-terminal chloroacetyl-Ala to Cys 15; C-terminal Gly-KN3-NH2, azide joined to BCN on the oligonucleotide
notes: also called A1/C19
B11: peptide-HDO conjugate of Example 9 (first nucleic acid strand A1, second nucleic acid strand C9) (peptide)
peptide: AVFVWNYYIIRRYYC
modifications: not fully specified; MeF at 3, MeY at 14 (N-methyl); thioether ring from N-terminal chloroacetyl-Ala to Cys 15; C-terminal Gly-KN3-NH2, azide joined to BCN on the oligonucleotide
notes: also called A1/C9
B12: Y6-HDO conjugate of Example 1 (compound A1 annealed with compound C1) (peptide)
peptide: AVFVWNYYIIRRYYC
modifications: MeF at 3, MeY at 14 (N-methyl); thioether ring from N-terminal chloroacetyl-Ala to Cys 15; C-terminal Gly-KN3-NH2, azide joined to BCN on the oligonucleotide
notes: also called A1/C1
B13: peptide-HDO conjugate of Example 15 (first nucleic acid strand A2, second nucleic acid strand C15) (peptide)
peptide: AVFVWNYYIIRRYYC
modifications: MeF at 3, MeY at 14 (N-methyl); thioether ring from N-terminal chloroacetyl-Ala to Cys 15; C-terminal Gly-KN3-NH2, azide joined to BCN on the oligonucleotide
notes: also called A2/C15
B14: peptide-HDO conjugate of Example 40 (first nucleic acid strand A2, second nucleic acid strand C32) (peptide)
peptide: AVFVWNYYIIRRYYC
modifications: MeF at 3, MeY at 14 (N-methyl); thioether ring from N-terminal chloroacetyl-Ala to Cys 15; C-terminal Gly-KN3-NH2, azide joined to BCN on the oligonucleotide
notes: also called A2/C32
B15: peptide-HDO conjugate of Example 21 (first nucleic acid strand A1, second nucleic acid strand C21) (peptide)
peptide: AVFVWNYYIIRRYYC
modifications: MeF at 3, MeY at 14 (N-methyl); thioether ring from N-terminal chloroacetyl-Ala to Cys 15; C-terminal Gly-KN3-NH2, azide joined to BCN on the oligonucleotide
notes: also called A1/C21
B16: peptide-HDO conjugate of Example 52 (first nucleic acid strand A2, second nucleic acid strand C49) (peptide)
peptide: AVFVWNYYIIRRYYC
modifications: MeF at 3, MeY at 14 (N-methyl); thioether ring from N-terminal chloroacetyl-Ala to Cys 15; C-terminal Gly-PEG4c-KN3-NH2, azide joined to BCN on the oligonucleotide
notes: also called A2/C49
B17: peptide-HDO conjugate of Example 26 (first nucleic acid strand A1, second nucleic acid strand C26) (peptide)
peptide: AVFVWNYYIIRRYYC
modifications: MeF at 3, MeY at 14 (N-methyl); thioether ring from N-terminal chloroacetyl-Ala to Cys 15; C-terminal Gly-KN3-NH2, azide joined to BCN on the oligonucleotide
notes: also called A1/C26
B18: peptide-HDO conjugate of Example 36 (first nucleic acid strand A2, second nucleic acid strand C28) (peptide)
peptide: AVFVWNYYIIRRYYC
modifications: MeF at 3, MeY at 14 (N-methyl); thioether ring from N-terminal chloroacetyl-Ala to Cys 15; C-terminal Gly-KN3-NH2, azide joined to BCN on the oligonucleotide
notes: also called A2/C28
B19: peptide-HDO conjugate of Example 33 (first nucleic acid strand A1, second nucleic acid strand C33) (peptide)
peptide: AVFVWNYYIIRRYYC
modifications: MeF at 3, MeY at 14 (N-methyl); thioether ring from N-terminal chloroacetyl-Ala to Cys 15; C-terminal Gly-KN3-NH2, azide joined to BCN on the oligonucleotide
notes: also called A1/C33
B20: peptide-HDO conjugate of Example 2 (first nucleic acid strand A1, second nucleic acid strand C2) (peptide)
peptide: AVFVWNYYIIRRYYC
modifications: MeF at 3, MeY at 14 (N-methyl); thioether ring from N-terminal chloroacetyl-Ala to Cys 15; C-terminal Gly-KN3-NH2, azide joined to BCN on the oligonucleotide
notes: also called A1/C2
B21: peptide-HDO conjugate of Example 18 (first nucleic acid strand A1, second nucleic acid strand C18) (peptide)
peptide: AVFVWNYYIIRRYYC
modifications: MeF at 3, MeY at 14 (N-methyl); thioether ring from N-terminal chloroacetyl-Ala to Cys 15; C-terminal Gly-KN3-NH2, azide joined to BCN on the oligonucleotide
notes: also called A1/C18
B22: peptide-HDO conjugate of Example 30 (first nucleic acid strand A1, second nucleic acid strand C30) (peptide)
peptide: AVFVWNYYIIRRYYC
modifications: MeF at 3, MeY at 14 (N-methyl); thioether ring from N-terminal chloroacetyl-Ala to Cys 15; C-terminal Gly-KN3-NH2, azide joined to BCN on the oligonucleotide
notes: also called A1/C30
B23: peptide-HDO conjugate of Example 53 (first nucleic acid strand A2, second nucleic acid strand C50) (peptide)
peptide: AVFVWNYYIIRRYYC
modifications: MeF at 3, MeY at 14 (N-methyl); thioether ring from N-terminal chloroacetyl-Ala to Cys 15; C-terminal Gly-PEG12c-KN3-NH2, azide joined to BCN on the oligonucleotide
notes: also called A2/C50
B24: peptide-HDO conjugate of Example 16 (first nucleic acid strand A2, second nucleic acid strand C16) (peptide)
peptide: AVFVWNYYIIRRYYC
modifications: MeF at 3, MeY at 14 (N-methyl); thioether ring from N-terminal chloroacetyl-Ala to Cys 15; C-terminal Gly-KN3-NH2, azide joined to BCN on the oligonucleotide
notes: also called A2/C16
B25: peptide-HDO conjugate of Example 34 (first nucleic acid strand A2, second nucleic acid strand C26) (peptide)
peptide: AVFVWNYYIIRRYYC
modifications: MeF at 3, MeY at 14 (N-methyl); thioether ring from N-terminal chloroacetyl-Ala to Cys 15; C-terminal Gly-KN3-NH2, azide joined to BCN on the oligonucleotide
notes: also called A2/C26
B26: peptide-HDO conjugate of Example 25 (first nucleic acid strand A2, second nucleic acid strand C20) (peptide)
peptide: AVFVWNYYIIRRYYC
modifications: MeF at 3, MeY at 14 (N-methyl); thioether ring from N-terminal chloroacetyl-Ala to Cys 15; C-terminal Gly-KN3-NH2, azide joined to BCN on the oligonucleotide
notes: also called A2/C20

Molecular target: T1, human transferrin receptor (hTfR) (human, UniProt P02786 89-760, limits assumed)
T1 construct: 0.5 uM hTfR solution immobilised on a Ni-NTA chip with EDC/NHS; source and construct are not described; also called human TfR
T1 sequence (P02786 89-760 limits assumed): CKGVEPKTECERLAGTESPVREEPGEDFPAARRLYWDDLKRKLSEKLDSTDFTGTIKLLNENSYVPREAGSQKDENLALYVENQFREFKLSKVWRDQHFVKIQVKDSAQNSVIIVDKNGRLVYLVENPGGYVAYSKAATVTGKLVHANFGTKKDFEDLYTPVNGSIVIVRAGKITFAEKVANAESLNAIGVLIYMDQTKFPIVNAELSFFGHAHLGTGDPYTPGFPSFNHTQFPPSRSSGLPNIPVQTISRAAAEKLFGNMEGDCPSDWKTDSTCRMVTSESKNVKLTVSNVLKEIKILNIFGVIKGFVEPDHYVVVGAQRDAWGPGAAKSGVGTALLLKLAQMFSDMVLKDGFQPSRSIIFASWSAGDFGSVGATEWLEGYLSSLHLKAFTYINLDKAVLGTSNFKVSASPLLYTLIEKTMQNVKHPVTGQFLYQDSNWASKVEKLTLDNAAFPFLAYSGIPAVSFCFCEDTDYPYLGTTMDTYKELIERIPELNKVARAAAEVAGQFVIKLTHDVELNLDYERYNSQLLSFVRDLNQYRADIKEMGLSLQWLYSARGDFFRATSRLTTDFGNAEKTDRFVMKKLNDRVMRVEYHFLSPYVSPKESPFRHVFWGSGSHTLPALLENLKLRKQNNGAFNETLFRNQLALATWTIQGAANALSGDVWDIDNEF
Assay: SPR, hTfR immobilised on NTA chip, single cycle kinetics; A = KD less than 100 nM
Protocol: The various synthesized peptide-nucleic acid conjugates were tested for intermolecular interaction by surface plasmon resonance (SPR) of the peptide-nucleic acid conjugate with transferrin receptor (hTfR) using the method shown below. The specific test method is shown below.
NTA sensor chip (Global Life Science Technologies Japan Co., Ltd.) was inserted into Biacore T200 (Global Life Science Technologies Japan Co., Ltd.), prime operation was performed three times with running buffer: 10 mM HEPES pH 8.0 (Nacalai Tesque Co., Ltd.), 150 mM NaCl (Nacalai Tesque Co., Ltd.), 0.05% Tween 20 (Nacalai Tesque Co., Ltd.), 0.1% BSA (SIGMA-ALDRICH), and 1.0% DMSO (FUJIFILM Wako Pure Chemical Corporation), and equilibrated at a flow rate of 30 μL/min. 350 mM EDTA solution was reacted for 60 seconds at a flow rate of 10 μL/min, 0.5 mM NiCl₂ solution (Kishida Chemical) was reacted for 60 seconds at a flow rate of 10 μL/min, and the NTA sensor chip was washed with 3 mM EDTA solution (Nacalai Tesque Co., Ltd.) for 60 seconds at a flow rate of 10 μL/min. After mixing 50 μL each of 60 mM EDC solution (Global Life Science Technologies Japan Co., Ltd.) and 650 mM NHS solution (Global Life Science Technologies Japan Co., Ltd.), the mixture was reacted for 420 seconds at a flow rate of 10 μL/min. 150 μL of a 0.5 μM hTfR solution was prepared by diluting with a running buffer and reacted for 300 seconds at a flow rate of 10 μL/min to immobilize hTfR on the NTA sensor chip. After immobilization, capping was performed by reacting with a 1.0 M ethanolamine aqueous solution (Global Life Science Technologies Japan Co., Ltd.) at a flow rate of 10 μL/min for 420 seconds. A peptide-nucleic acid conjugate solution adjusted to 10 mM in DMSO solution was diluted with running buffer to a final concentration of […] peptide-nucleic acid conjugate solution, and 100 nM, 50 nM, 25 nM, 10 nM, 5 nM peptide-nucleic acid conjugate solutions were prepared. Using the aforementioned samples, the kinetics of the peptide against hTfR was obtained by SPR measurement.
The kinetics evaluation model was Single Cycle Kinetics, and curve fitting was performed using Biacore T200 Evaluation Software Version 3.0 (Global Life Science Technologies Japan Co., Ltd.).

Kd [nM] | Binder
< 100 | B1
< 100 | B2
< 100 | B3
< 100 | B4
< 100 | B5
< 100 | B6
< 100 | B7
< 100 | B8
< 100 | B9
< 100 | B10
< 100 | B11
< 100 | B12
< 100 | B13
< 100 | B14
< 100 | B15
< 100 | B16
< 100 | B17
< 100 | B18
< 100 | B19
< 100 | B20
< 100 | B21
< 100 | B22
< 100 | B23
< 100 | B24
< 100 | B25
< 100 | B26

Reference: patent US20240390508A1 (Takeda / Millennium, published 2024)
